The values that follow come from paper PMC5017722.

The target in assay [1] is soluble hMPV F ectodomain (1-489, NL/1/00, G294E) with C-terminal TEV site, Foldon, Xa site and 6xHis-tag, uncleaved (human metapneumovirus, strain NL/1/00 (A1 sublineage)). Description: SEC; HiLoad 16/600 Superdex 200 pg; 50 mM Na2HPO4 pH 8.0, 300 mM NaCl.
The target of assay [2] is soluble postfusion hMPV F (NL/1/00, A1 sublineage), furin-cleaved, fusion peptide residues 103-111 d (human metapneumovirus, strain NL/1/00 (A1 sublineage)). Described as above.

“soluble hMPV F ectodomain (1-489, NL/1/00, G294E) with C-terminal TEV site, Foldon, Xa site and 6xHis-tag, uncleaved (domain or fragment)”: the stoichiometry N in assay [1] was 3.

For the substance “soluble postfusion hMPV F (NL/1/00, A1 sublineage), furin-cleaved, fusion peptide residues 103-111 d (domain or fragment)”, in assay [2], the stoichiometry N came out at 3.

By stoichiometry N is commonly meant the number of molecules, sites or subunits per partner or assembly.
